This is an account of results in patent US20250026837A1 (CANCURE, published 2025).

For test [1], the target named is T1, MICB (antigen in solution in the BLI assay) (UniProt Q29980 24-297, limits assumed).
T1 construct: also called antigen (MICB)
T1 sequence (looked up): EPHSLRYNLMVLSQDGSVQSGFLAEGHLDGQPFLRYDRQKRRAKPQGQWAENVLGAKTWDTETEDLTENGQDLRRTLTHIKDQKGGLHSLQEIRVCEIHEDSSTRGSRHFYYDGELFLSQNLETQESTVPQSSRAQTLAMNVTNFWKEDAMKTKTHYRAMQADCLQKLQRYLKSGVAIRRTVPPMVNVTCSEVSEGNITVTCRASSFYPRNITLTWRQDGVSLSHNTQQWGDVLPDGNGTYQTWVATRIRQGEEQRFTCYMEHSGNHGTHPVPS
Kind of test: BLI, Octet Red96; antibody captured on biosensor, MICB dilution series in solution; 1:1 model, global fit; Ab-J (chimeric B10G5), FIG. 2A. How it is done:
(§1) Bio-layer interferometry (BLI) was performed using Octet Red96 (ForteBio) generally as described by Kamat and Rafique, Analytical Biochemistry 536: 16-31 (2017). Antibody samples, Ab-K and Ab-J (chimeric B10G5), were captured on kinetic grade biosensors. The loaded biosensors were then dipped into a dilution series of samples containing antigen (MICB) serially diluted in PBS buffer with 0.1% BSA, 0.02% Tween-20, pH 7.2. […] Kinetic analysis was performed using a 1:1 binding model and global fitting with mass transport limitation using the Scrubber software.
(BLI is a label-free optical method that tracks binding on a fibre tip over time.)

In test [2] the target is T1, MICB (antigen in solution in the BLI …). Kind of test: BLI, Octet Red96; antibody captured on biosensor, MICB dilution series in solution; 1:1 model, global fit; Ab-K (humanized), FIG. 2B. How it is done:
as §1

B1: antibody J (Ab-J; chimeric B10G5, parental HC / parental LC with human IgG1 Fc region) (antibody, V domains shown)
VH: EVQLEESGPGLVKPSQSLSLTCTVTGYSITSDYAWNWIRQFPGNKLEWMGYISYSGSTNYNPSLKSRISITRDTSKNQFFLQLNSVITEDTATYYCARGGTYFDYWGQGTTLTVSS
VL: DIVLTQTTSYLSVSLGGRVTIACKASAHINNWLAWYQQKPGNAPRLLISDATSLETGVPSRFSGSGSGKDYTLSITSLQTEDVATYYCQHYWSTPWTFGGGTKLEIK
notes: also called chimeric antibody B10G5
For the molecule B1, in test [1], the Kd (as a rule, the constant that tells how readily two partners part at equilibrium) was determined as 12.1 nM.

B2: antibody K (Ab-K; humanized HC2 / humanized LC3, human IgG1) (antibody, V domains shown)
VH: EVQLQESGPGLVKPSQTLSLTCTVSGYSITSDYAWNWIRQPPGKGLEWIGYISYSGSTNYNPSLKSRVTISRDTSKNQFSLKLSSVTAADTAVYYCARGGTYFDYWGQGTLVTVSS
VL: DVVMTQSPSTLSASVGDRVTITCRASAHINNWLAWYQQKPGKAPKLLISDATSLESGVPSRFSGSGSGKEYTLTISSLQPDDFATYYCQHYWSTPWTFGQGTKVEIKR
notes: also called K (HC2/LC3)
The molecule B2 yielded a dissociation constant Kd in test [2] of 7.2 nM.
